# Laboratory results: the supplement of paper PMC9112550, “Optimization of the antimicrobial peptide Bac7 by deep mutational scanning” (BMC Biology, 2022)
# System: Escherichia coli TOP10
# Experiment: shrunken log2 fold change of peptide-encoding DNA abundance (4.5 h post-induction vs induction); higher = less antimicrobial activity (less host growth inhibition)
# Conditions: time post-induction: 4.5 h; library: site-saturation at positions 5, 18, 19, 20
# 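Note: peptides expressed intracellularly from a pBAD plasmid library in pooled LB shake-flask culture, induced with 0.3% L-arabinose, DNA abundance read by NGS, three biological replicates, DESeq2 with apeglm shrinkage.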
row,Sequence,shrunken log2 fold change
1,RRIRCRPPRLPRPRPRPHIHPRP,-0.759
2,RRIRDRPPRLPRPRPRPSDAPRP,-0.218
3,RRIRFRPPRLPRPRPRPPVCPRP,-0.0141
4,RRIRFRPPRLPRPRPRPNKTPRP,-0.172
5,RRIRVRPPRLPRPRPRPMVFPRP,0.0611
6,RRIRGRPPRLPRPRPRPTDPPRP,0.687
7,RRIRCRPPRLPRPRPRPNHRPRP,-0.233
8,RRIRRRPPRLPRPRPRPEAQPRP,0.253
9,RRIRHRPPRLPRPRPRPWRPPRP,0.29
10,RRIRERPPRLPRPRPRPVANPRP,-0.068
11,RRIRHRPPRLPRPRPRPFLGPRP,0.0354
12,RRIRWRPPRLPRPRPRPEGVPRP,0.601
13,RRIRHRPPRLPRPRPRPHKNPRP,-0.263
14,RRIRVRPPRLPRPRPRPTELPRP,0.324
15,RRIRVRPPRLPRPRPRPQDCPRP,-0.172
16,RRIRSRPPRLPRPRPRPRKRPRP,0.213
17,RRIRHRPPRLPRPRPRPYIMPRP,-0.431
18,RRIRMRPPRLPRPRPRPKRDPRP,1.15
19,RRIRPRPPRLPRPRPRPCSHPRP,-0.0663
20,RRIRQRPPRLPRPRPRPNKLPRP,-0.0898
21,RRIRDRPPRLPRPRPRPDFRPRP,-0.0735
22,RRIRFRPPRLPRPRPRPINAPRP,0.00976

row,Sequence,shrunken log2 fold change
1,RRIRLRPPRLPRPRPRPAKVPRP,-0.0169
2,RRIRRRPPRLPRPRPRPATVPRP,-0.037
3,RRIRRRPPRLPRPRPRPVNRPRP,-0.0157
4,RRIRQRPPRLPRPRPRPDKCPRP,0.272
5,RRIRWRPPRLPRPRPRPWCYPRP,-0.475
6,RRIRDRPPRLPRPRPRPHFGPRP,0.0884
7,RRIRGRPPRLPRPRPRPYGLPRP,0.0992
8,RRIRQRPPRLPRPRPRPLCVPRP,-0.183
9,RRIRCRPPRLPRPRPRPRSQPRP,0.0629
10,RRIRVRPPRLPRPRPRPLGPPRP,0.342
11,RRIRDRPPRLPRPRPRPVTHPRP,-0.0987
12,RRIRIRPPRLPRPRPRPTVVPRP,-0.0277
13,RRIRNRPPRLPRPRPRPELIPRP,-0.0327
14,RRIRVRPPRLPRPRPRPLETPRP,-0.062
15,RRIRERPPRLPRPRPRPDWIPRP,-0.126
16,RRIRCRPPRLPRPRPRPFQWPRP,-0.0999
17,RRIRLRPPRLPRPRPRPRGMPRP,0.239
18,RRIRPRPPRLPRPRPRPTALPRP,0.0271
19,RRIRFRPPRLPRPRPRPGQDPRP,-0.0452
20,RRIRFRPPRLPRPRPRPFEIPRP,-0.0265
21,RRIRDRPPRLPRPRPRPITYPRP,0.024
22,RRIRPRPPRLPRPRPRPGTYPRP,-0.147

row,Sequence,shrunken log2 fold change
1,RRIRPRPPRLPRPRPRPGFCPRP,0.295
2,RRIRGRPPRLPRPRPRPDHPPRP,-0.0241
3,RRIRNRPPRLPRPRPRPHIAPRP,-0.621
4,RRIRWRPPRLPRPRPRPCDLPRP,-0.286
5,RRIRCRPPRLPRPRPRPANWPRP,0.938
6,RRIRQRPPRLPRPRPRPQFWPRP,0.681
7,RRIRRRPPRLPRPRPRPPTHPRP,0.622
8,RRIRQRPPRLPRPRPRPYFVPRP,-0.472
9,RRIRWRPPRLPRPRPRPMFFPRP,0.111
10,RRIRARPPRLPRPRPRPWIGPRP,0.15
11,RRIRRRPPRLPRPRPRPSYSPRP,-0.319
12,RRIRMRPPRLPRPRPRPDVFPRP,0.387
13,RRIRIRPPRLPRPRPRPVGSPRP,0.36
14,RRIRDRPPRLPRPRPRPWHFPRP,-0.01
15,RRIRNRPPRLPRPRPRPKASPRP,-0.127
16,RRIRLRPPRLPRPRPRPIPHPRP,-0.332
17,RRIRTRPPRLPRPRPRPAGIPRP,-0.0928
18,RRIRHRPPRLPRPRPRPRTTPRP,0.136
19,RRIRHRPPRLPRPRPRPGMPPRP,0.47
20,RRIRCRPPRLPRPRPRPKRCPRP,-0.00852
21,RRIRFRPPRLPRPRPRPWTQPRP,-0.959
22,RRIRSRPPRLPRPRPRPMAQPRP,0.112

row,Sequence,shrunken log2 fold change
1,RRIRCRPPRLPRPRPRPTFCPRP,-0.0442
2,RRIRFRPPRLPRPRPRPTTIPRP,-0.548
3,RRIRERPPRLPRPRPRPCTNPRP,-0.559
4,RRIRDRPPRLPRPRPRPIMFPRP,0.0387
5,RRIRARPPRLPRPRPRPVCDPRP,0.992
6,RRIRTRPPRLPRPRPRPLLEPRP,0.024
7,RRIRSRPPRLPRPRPRPPILPRP,0.0371
8,RRIRVRPPRLPRPRPRPNDNPRP,-0.481
9,RRIRSRPPRLPRPRPRPFKWPRP,-0.24
10,RRIRRRPPRLPRPRPRPWHMPRP,0.0729
11,RRIRLRPPRLPRPRPRPIEMPRP,-0.0708
12,RRIRMRPPRLPRPRPRPRVQPRP,0.64
13,RRIRRRPPRLPRPRPRPYTDPRP,-0.0165
14,RRIRNRPPRLPRPRPRPMCIPRP,-0.0106
15,RRIRRRPPRLPRPRPRPQFVPRP,0.153
16,RRIRGRPPRLPRPRPRPPDDPRP,1.34
17,RRIRQRPPRLPRPRPRPRQHPRP,-0.141
18,RRIRNRPPRLPRPRPRPYKGPRP,-1.13
19,RRIRRRPPRLPRPRPRPRLKPRP,0.231
20,RRIRRRPPRLPRPRPRPSCSPRP,-0.163
21,RRIRERPPRLPRPRPRPYGNPRP,-0.0871
22,RRIRNRPPRLPRPRPRPYTLPRP,-0.288

row,Sequence,shrunken log2 fold change
1,RRIRQRPPRLPRPRPRPYVMPRP,-0.108
2,RRIRYRPPRLPRPRPRPKVNPRP,-0.599
3,RRIRIRPPRLPRPRPRPREPPRP,0.183
4,RRIRPRPPRLPRPRPRPDDLPRP,-0.296
5,RRIRVRPPRLPRPRPRPSRPPRP,0.196
6,RRIRQRPPRLPRPRPRPFTLPRP,-0.0549
7,RRIRIRPPRLPRPRPRPEACPRP,-0.064
8,RRIRKRPPRLPRPRPRPDIKPRP,0.137
9,RRIRYRPPRLPRPRPRPCYKPRP,-0.0156
10,RRIRPRPPRLPRPRPRPTLSPRP,0.421
11,RRIRCRPPRLPRPRPRPYYRPRP,-0.301
12,RRIRQRPPRLPRPRPRPNAYPRP,-0.279
13,RRIRSRPPRLPRPRPRPFRRPRP,-0.261
14,RRIRCRPPRLPRPRPRPFQHPRP,-0.221
15,RRIRNRPPRLPRPRPRPVLVPRP,-0.211
16,RRIRIRPPRLPRPRPRPKAHPRP,-0.242
17,RRIRGRPPRLPRPRPRPNPLPRP,0.217
18,RRIRFRPPRLPRPRPRPRSVPRP,-0.00149
19,RRIRVRPPRLPRPRPRPSDKPRP,-0.153
20,RRIRRRPPRLPRPRPRPQIMPRP,-0.137
21,RRIRRRPPRLPRPRPRPNQSPRP,-0.13
